Data as given in the Immune Epitope Database (IEDB).
pIC50, pKd: −log10 of the molar value. One block for each sequence: values may come before it.

Tests used:
HLA-B*57:01 [1] = test: IEDB peptide-MHC binding, purified MHC/competitive/radioactivity; filed as Kd, often an IC50 or EC50 that approximates it; ≥ and ≤ were set here for values at or beyond the usual limits of such assays
HLA-A*02:01 [2] = test: IEDB peptide-MHC binding, purified MHC/competitive/fluorescence; ≥ and ≤ were set here for values at or beyond the usual limits of such assays; conditions: source organism: Zaire ebolavirus
HLA-A*11:01 [3] = test: as above
HLA-A*24:02 = test: as above; conditions: source organism: Zaire ebolavirus
HLA-A*03:01 [4] = test: as above
HLA-B*15:01 [5] = test: as above; conditions: source organism: Zaire ebolavirus
HLA-A*01:01 = test: IEDB peptide-MHC binding, purified MHC/direct/fluorescence; filed as Kd, often an IC50 or EC50 that approximates it; ≥ and ≤ were set here for values at or beyond the usual limits of such assays
HLA-A*29:02 [6] = test: as above
HLA-A*02:11 = test: IEDB peptide-MHC binding, purified MHC/competitive/fluorescence; filed as Kd, often an IC50 or EC50 that approximates it; ≥ and ≤ were set here for values at or beyond the usual limits of such assays
HLA-A*02:01 [7] = test: as above
HLA-A*31:01 [8] = test: as above
HLA-A*03:01 [9] = test: as above
HLA-B*15:01 [10] = test: as above
HLA-B*57:01 [11] = test: IEDB peptide-MHC binding, purified MHC/direct/fluorescence; filed as Kd, often an IC50 or EC50 that approximates it; ≥ and ≤ were set here for values at or beyond the usual limits of such assays
HLA-A*31:01 [12] = test: as above; conditions: source organism: Mycobacterium tuberculosis variant bovis
HLA-A*11:01 [13] = test: as above
HLA-B*18:01 [14] = test: as above; conditions: source organism: Mycobacterium tuberculosis variant bovis
HLA-B*48:01 = test: as above; conditions: source organism: Mycobacterium tuberculosis variant bovis
HLA-A*69:01 [15] = test: as above
HLA-B*27:05 = test: as above; conditions: source organism: Mycobacterium tuberculosis variant bovis
HLA-B*08:01 = test: as above; conditions: source organism: Mycobacterium tuberculosis variant bovis
HLA-B*40:01 = test: as above; conditions: source organism: Mycobacterium tuberculosis variant bovis
HLA-A*03:01 [16] = test: as above
HLA-B*46:01 [17] = test: as above; conditions: source organism: Mycobacterium tuberculosis variant bovis
HLA-B*15:01 [18] = test: as above; conditions: source organism: Mycobacterium tuberculosis variant bovis
HLA-B*58:01 = test: as above
HLA-B*57:01 [19] = test: IEDB peptide-MHC binding, purified MHC/competitive/fluorescence; filed as Kd, often an IC50 or EC50 that approximates it; ≥ and ≤ were set here for values at or beyond the usual limits of such assays; conditions: source organism: Salmonella enterica subsp. enterica serovar Typhi
HLA-A*02:12 = test: as above; conditions: source organism: Salmonella enterica subsp. enterica serovar Typhi
HLA-B*39:01 = test: as above; conditions: source organism: Salmonella enterica subsp. enterica serovar Typhi
HLA-B*18:01 [20] = test: as above; conditions: source organism: Salmonella enterica subsp. enterica serovar Typhi
HLA-A*02:19 = test: as above
HLA-A*29:02 [21] = test: as above; conditions: source organism: Salmonella enterica subsp. enterica serovar Typhi
HLA-A*02:03 = test: as above; conditions: source organism: Salmonella enterica subsp. enterica serovar Typhi
HLA-B*27:03 = test: as above; conditions: source organism: Salmonella enterica subsp. enterica serovar Typhi
HLA-B*46:01 [22] = test: as above; conditions: source organism: Salmonella enterica subsp. enterica serovar Typhi
HLA-B*51:01 = test: as above; conditions: source organism: Salmonella enterica subsp. enterica serovar Typhi
HLA-A*30:02 = test: IEDB peptide-MHC binding, purified MHC/competitive/radioactivity; filed as Kd, often an IC50 or EC50 that approximates it; ≥ and ≤ were set here for values at or beyond the usual limits of such assays; conditions: source organism: Dengue virus 4 Philippines/H241/1956
HLA-B*15:01 [23] = test: as above; conditions: source organism: Dengue virus 4 Philippines/H241/1956
HLA-C*05:01 = test: IEDB peptide-MHC binding, purified MHC/direct/fluorescence; filed as Kd, often an IC50 or EC50 that approximates it; ≥ and ≤ were set here for values at or beyond the usual limits of such assays
HLA-B*15:17 = test: as above; conditions: source organism: West Nile virus
HLA-A*69:01 [24] = test: IEDB peptide-MHC binding, purified MHC/competitive/fluorescence; filed as Kd, often an IC50 or EC50 that approximates it; ≥ and ≤ were set here for values at or beyond the usual limits of such assays; conditions: source organism: Human immunodeficiency virus 1
HLA-B*15:42 = test: as above; conditions: source organism: Yersinia pestis Nepal516
HLA-B*45:06 = test: as above; conditions: source organism: Yersinia pestis Nepal516
HLA-B*83:01 = test: as above; conditions: source organism: Yersinia pestis Nepal516
[25] = source organism: Zaire ebolavirus
[26] = source organism: Dengue virus 2 Jamaica/1409/1983
[27] = source organism: Brucella abortus bv. 2 str. 86/8/59
[28] = source organism: Escherichia coli 536
[29] = source organism: Sudan ebolavirus
[30] = source organism: Mycobacterium tuberculosis variant bovis
[31] = source organism: Salmonella enterica subsp. enterica serovar Typhi
[32] = source organism: dengue virus type 4
[33] = source organism: Vaccinia virus Copenhagen
[34] = source organism: Vaccinia virus WR
[35] = source organism: West Nile virus
[36] = source organism: Human immunodeficiency virus 1
[37] = source organism: Yersinia pestis

Sequence: AVFTEENQW
- pKd (HLA-B*57:01 [1]; source organism: Dengue virus 3 Martinique/1243/1999): 7.31

Sequence: AIGLAWIPY
- pIC50 (HLA-A*02:01 [2]): ≤ 3.61
- pIC50 (HLA-A*11:01 [3]; [25]): 4.21
- pIC50 (HLA-A*24:02): ≤ 3.78
- pIC50 (HLA-A*03:01 [4]; [25]): 5.81
- pIC50 (HLA-B*15:01 [5]): 5.84

Sequence: LGKSYAQMW
- pKd (HLA-B*57:01 [1]; [26]): 7.03

Sequence: ATTAAGPPK
- pIC50 (HLA-A*02:01 [2]): ≤ 3.45
- pIC50 (HLA-A*11:01 [3]; [25]): 6.12
- pIC50 (HLA-A*03:01 [4]; [25]): 5.20

Sequence: PTAIYTLEY
- pKd (HLA-A*01:01; source organism: Mycobacterium tuberculosis): 8.04
- pKd (HLA-A*29:02 [6]; source organism: Mycobacterium tuberculosis str. Haarlem): 8.22

Sequence: GSSPILSITI
- pKd (HLA-B*57:01 [1]; [26]): 6.94

Sequence: ILDDPEIYP
- pKd (HLA-A*02:11; [27]): 6.17
- pKd (HLA-A*02:01 [7]; [27]): 4.92

Sequence: ASLPKTSGH
- pIC50 (HLA-A*11:01 [3]; [25]): 5.58
- pIC50 (HLA-A*03:01 [4]; [25]): 4.70
- pIC50 (HLA-B*15:01 [5]): ≤ 3.85

Sequence: EMYRHILRS
- pIC50 (HLA-A*02:01 [2]): 5.05
- pIC50 (HLA-A*03:01 [4]; [25]): ≤ 4.01

- pKd (HLA-A*31:01 [8]; [28]): 6.05
- pKd (HLA-A*03:01 [9]; [28]): 6.87
- pKd (HLA-B*15:01 [10]; [28]): ≤ 4.70
Sequence: KLIAVPHTK

Sequence: QLPRDKFRK
- pIC50 (HLA-A*11:01 [3]; [29]): 6.14
- pIC50 (HLA-A*03:01 [4]; [29]): 5.47

Sequence: PMQQLTQPL
- pKd (HLA-B*57:01 [11]; [30]): ≤ 4.70
- pKd (HLA-A*31:01 [12]): ≤ 4.70
- pKd (HLA-A*01:01; [30]): ≤ 4.70
- pKd (HLA-A*11:01 [13]; [30]): ≤ 4.70
- pKd (HLA-B*18:01 [14]): ≤ 4.70
- pKd (HLA-A*29:02 [6]; [30]): ≤ 4.70
- pKd (HLA-B*48:01): ≤ 4.70
- pKd (HLA-A*69:01 [15]; [30]): ≤ 4.70
- pKd (HLA-B*27:05): ≤ 4.70
- pKd (HLA-B*08:01): ≤ 4.70
- pKd (HLA-B*40:01): ≤ 4.70
- pKd (HLA-A*03:01 [16]; [30]): ≤ 4.70
- pKd (HLA-B*46:01 [17]): ≤ 4.70
- pKd (HLA-B*15:01 [18]): ≤ 4.70
- pKd (HLA-B*58:01; [30]): ≤ 4.70

Sequence: HVTQHWPQL
- pKd (HLA-A*02:11; [31]): ≤ 4.70
- pKd (HLA-B*57:01 [19]): ≤ 4.70
- pKd (HLA-A*02:12): 5.15
- pKd (HLA-A*02:01 [7]; [31]): ≤ 4.70
- pKd (HLA-B*39:01): ≤ 4.70
- pKd (HLA-B*18:01 [20]): ≤ 4.70
- pKd (HLA-A*02:19; [31]): ≤ 4.70
- pKd (HLA-A*29:02 [21]): ≤ 4.70
- pKd (HLA-A*02:03): ≤ 4.70
- pKd (HLA-B*27:03): ≤ 4.70
- pKd (HLA-A*03:01 [9]; [31]): ≤ 4.70
- pKd (HLA-B*46:01 [22]): ≤ 4.70
- pKd (HLA-B*51:01): ≤ 4.70
- pKd (HLA-B*15:01 [10]; [31]): ≤ 4.70

Sequence: KVASAGISY
- pKd (HLA-A*11:01 [13]; [32]): 7.28
- pKd (HLA-A*31:01 [8]; [32]): ≤ 4.70
- pKd (HLA-A*30:02): 7.39
- pKd (HLA-B*15:01 [23]): 8.73

Sequence: TKLYKNKSK
- pIC50 (HLA-A*11:01 [3]; [33]): 4.24
- pIC50 (HLA-A*03:01 [4]; [33]): 4.35

Sequence: KHVGLITCK
- pIC50 (HLA-A*11:01 [3]; [34]): ≤ 4.10
- pIC50 (HLA-A*03:01 [4]; [34]): 4.33

Sequence: VIAFLILAK
- pIC50 (HLA-A*11:01 [3]; [29]): 6.25
- pIC50 (HLA-A*03:01 [4]; [29]): 5.77

Sequence: FLAVGGVLL
- pKd (HLA-C*05:01; [35]): 5.38
- pKd (HLA-A*69:01 [15]; [35]): ≤ 4.70

Sequence: VQQGIVRQR
- pIC50 (HLA-A*11:01 [3]; [25]): 5.08
- pIC50 (HLA-A*03:01 [4]; [25]): ≤ 3.79

Sequence: ITYTDVLRY
- pKd (HLA-B*15:17): ≥ 9.00
- pKd (HLA-B*57:01 [11]; [35]): 6.98
- pKd (HLA-A*11:01 [13]; [35]): 7.83
- pKd (HLA-A*03:01 [16]; [35]): 6.84
- pKd (HLA-B*58:01; [35]): 7.42
- pKd (HLA-A*31:01 [8]; [35]): ≤ 4.70

Sequence: ELADQLIHL
- pKd (HLA-A*02:11; [36]): 7.58
- pKd (HLA-A*02:01 [7]; [36]): 5.94
- pKd (HLA-A*02:19; [36]): 8.17
- pKd (HLA-A*69:01 [24]): ≥ 9.00

Sequence: FPSVFINPV
- pKd (HLA-C*05:01; source organism: Myxoma virus): ≤ 4.70

Sequence: MLYKSSKSR
- pKd (HLA-A*31:01 [8]; source organism: Kurkino virus): 7.29
- pKd (HLA-A*03:01 [9]; source organism: Kurkino virus): 8.49

Sequence: GSYFSGFYK
- pKd (HLA-A*11:01 [13]; [37]): ≥ 9.00
- pKd (HLA-A*03:01 [16]; [37]): 7.86
- pKd (HLA-A*31:01 [8]; source organism: Yersinia pestis Nepal516): ≥ 9.00
- pKd (HLA-B*15:42): ≤ 5.30
- pKd (HLA-B*45:06): ≤ 5.30
- pKd (HLA-B*83:01): ≤ 5.30
